In data set [1] the target is T1, Cdc13-F539A (Saccharomyces cerevisiae, UniProt P32797 1-924, F539A).
T1 sequence: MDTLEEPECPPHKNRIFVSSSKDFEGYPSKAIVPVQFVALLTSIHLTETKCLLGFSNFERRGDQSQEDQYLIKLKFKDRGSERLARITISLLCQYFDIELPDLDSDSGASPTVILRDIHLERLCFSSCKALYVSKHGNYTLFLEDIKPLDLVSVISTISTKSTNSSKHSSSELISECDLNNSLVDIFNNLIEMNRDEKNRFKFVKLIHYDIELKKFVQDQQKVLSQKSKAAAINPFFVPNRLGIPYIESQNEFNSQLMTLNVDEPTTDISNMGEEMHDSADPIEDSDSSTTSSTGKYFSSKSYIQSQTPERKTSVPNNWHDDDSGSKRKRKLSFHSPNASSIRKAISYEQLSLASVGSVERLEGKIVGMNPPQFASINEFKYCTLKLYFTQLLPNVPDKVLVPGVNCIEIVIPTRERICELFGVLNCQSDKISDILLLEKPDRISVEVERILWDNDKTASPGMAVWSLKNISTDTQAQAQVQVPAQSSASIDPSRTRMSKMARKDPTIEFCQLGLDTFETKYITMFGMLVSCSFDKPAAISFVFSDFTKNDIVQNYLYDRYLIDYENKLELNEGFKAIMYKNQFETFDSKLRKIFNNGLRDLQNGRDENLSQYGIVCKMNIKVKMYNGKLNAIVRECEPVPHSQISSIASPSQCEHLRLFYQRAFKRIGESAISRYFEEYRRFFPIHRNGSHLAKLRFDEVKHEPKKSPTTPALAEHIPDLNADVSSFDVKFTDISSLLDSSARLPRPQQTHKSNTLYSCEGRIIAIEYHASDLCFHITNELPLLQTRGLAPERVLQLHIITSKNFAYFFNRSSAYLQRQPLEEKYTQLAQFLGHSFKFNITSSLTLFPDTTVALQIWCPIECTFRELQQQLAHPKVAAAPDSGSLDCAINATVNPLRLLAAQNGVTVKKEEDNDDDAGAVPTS
The data set is described as follows: EMSA.

In data set [2] the target is T2, Cdc13-L91R (Saccharomyces cerevisiae, UniProt P32797 1-924, L91R).
T2 sequence: T1 sequence with L91R, A539F
The data set is described as follows: EMSA. In general terms: In EMSA bound probe runs differently from free probe, usually more slowly.

The target in data set [3] is T3, Cdc13-MOB-DBD (Saccharomyces cerevisiae, UniProt P32797 344-694).
T3 sequence: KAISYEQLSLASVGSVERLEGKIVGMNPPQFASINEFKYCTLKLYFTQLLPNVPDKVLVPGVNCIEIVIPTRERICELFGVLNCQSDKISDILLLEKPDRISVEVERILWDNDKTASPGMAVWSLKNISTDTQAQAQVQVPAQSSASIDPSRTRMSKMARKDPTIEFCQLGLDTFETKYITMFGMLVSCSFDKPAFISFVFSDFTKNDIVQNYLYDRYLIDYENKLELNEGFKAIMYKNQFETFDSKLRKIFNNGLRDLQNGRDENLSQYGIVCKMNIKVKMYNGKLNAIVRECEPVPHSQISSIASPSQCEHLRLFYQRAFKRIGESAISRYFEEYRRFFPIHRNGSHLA
The data set is described as follows: EMSA.

Data set [4] has as its target T3, Cdc13-MOB-DBD. The experiment in a line: filter binding.

Experimental findings from PMC3874162 (Nucleic Acids Research, 2013) are described below.

Where a chain is given by its changes, count along the chain named.

For GTGTGGGTGTG (ssDNA) [Tel11], the Kd in data set [1] was found to be 0.14 ± 0.02 nM; in data set [2] it was 0.005 ± 0.0006 nM; in data set [3], 0.0023 ± 0.0002 nM; in data set [4], 0.18 ± 0.03 nM.

As usually defined, the Kd is a measure of binding affinity in units of concentration. High values mean a looser complex, low ones a tighter complex.
